According to the supplement of paper PMC9170038:

Columns and labels:
[1] = test system: MS2 coat protein; experiment: apparent KD of MS2 coat protein, switch ON state; designed switch direction (-1 OFF switch, 1 ON switch): -1; higher = weaker reporter binding; conditions: FMN input: 0 or 200 uM; Eterna round: R93 (includes R88 designs)
Outline: (§1)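 For every design, apparent KD is the median of normalised binding-curve fits from its clusters. The RNA switches were transcribed on-chip from Illumina sequencing clusters and titrated with SNAP-549-labelled MS2 coat protein (twofold steps, 0.7 or 1.5 nM to 3 µM; 0.8–1.5 h to 10–20 min per step). Titrations used 100 mM Tris-HCl pH 7.5, 80 mM KCl, 4 mM MgCl2, without or with constant ligand.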

[2] = test system: MS2 coat protein; experiment: apparent KD of MS2 coat protein, switch OFF state (with FMN for OFF switches, without FMN for ON switches); designed switch direction (-1 OFF switch, 1 ON switch): -1; higher = weaker reporter binding; conditions: FMN input: 0 or 200 uM; Eterna round: R93 (includes R88 designs)
Outline: as §1

[3] = test system: MS2 coat protein; experiment: apparent KD of MS2 coat protein; designed switch direction (-1 OFF switch, 1 ON switch): 1; higher = weaker reporter binding
Outline: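 Designed RNA switches with common flanks were transcribed on Illumina chips by stalled E. coli RNA polymerase and titrated with SNAP-549-labelled MS2 coat protein, from 0.7 or 1.5 nM doubling to 3 µM, in Tris-HCl pH 7.5 buffer with KCl, MgCl2, BSA, DTT, tRNA and Tween-20. Steps lasted 0.8–1.5 h (lowest) to 10–20 min (highest). Titrations ran without input, with 200 uM small-molecule ligand, or with an oligonucleotide input. Normalised cluster fluorescence was curve-fitted, and apparent KD is the per-design median over clusters.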

[4] = input ligand: microRNA oligo, concentration not stated
[5] = Eterna round: R95, input ligand: microRNA oligo, concentration not stated

Sequence	apparent KD of MS2 coat protein [1] [µM]	apparent KD of MS2 coat protein [2] [µM]	apparent KD of MS2 coat protein ([3]; input ligand: FMN 200 uM) [µM]	apparent KD of MS2 coat protein [3, 4] [µM]	apparent KD of MS2 coat protein ([3]; input ligand: none) [µM]	further results
AAAAAAAAAGGAUAUACAGGAGGUAAGGUCGGACAAAAAAAACAUGAGGAUCACCCAUGUAGAAGGUUUAAAAA [Excls2-IX]	0.0345	0.0198	–	–	–	–
AAAAAACAUGAGGAUCACCCAUGUAAGGAUAUACAAAACCCAUAUAAAAAGGGAAAAAGUAGAAGGUGCAAAAA [wbt round 1 mod 7]	0.0225	0.0231	–	–	–	–
AAAAAACAUGAGGAUCACCCAUGUAAGGAUAUCAGAGAAUUAAAAAAAAAAAAAAAAAUGAGAAGGUACAAAAA [excaliber]	0.0317	0.019	–	–	–	–
AAAAAACAUGAGGAUCACCCAUGUAAGGAUAUGCAAAACCCAUAUAAAAAGGGAAAAAGCAGAAGGUGCAAAAA [wbt round 1 mod 5]	0.0237	0.0332	–	–	–	–
AAAAAACAUGAGGAUCACCCAUGUAAGGAUAUGCAAAAGAAAAGAAAAGAAAGAAGAAGCAGAAGGUACAAGAA [Userkaf]	0.035	0.0312	–	–	–	–
UUGAAGAAUUAAGGAUAUCGAGUCAAGAUGUAAAACAUGAGGAUCACCCAUGUGGGUUGCGGUAUCGAGAAGGUAAAUUACAAG [Mat - Same State NG 2 - JL mod - D52] (Eterna round: R96, puzzle: Same State NG 2)	–	–	0.0241	0.0169	0.0354	–
UUGAAGAAUUAAGGAUAUUGAAUACAUAUGUUAAACAUGAGGAUCACCCAUGUGGGUUGCGGUAUCGAGAAGGUAAAUUACUAG [Mat - same State NG 2 - JL mod - D80] (Eterna round: R96, puzzle: Same State NG 2)	–	–	–	0.0601	–	–
UUGAUGAACUGAGGAUAUCGAGUCGUCUGUUUUUACAUGAGGAUCACCCAUGUGGGUUGUGGUAUCGAGAAGGCAGAUUACUUA [JR_SSNG2_Sub031] (Eterna round: R96, puzzle: Same State NG 2)	–	–	1.67	0.974	2.15	–
UUGCAGUCAGGUGAGGAUAUCAUGAAUUAAACAUGAGGAUCACCCAUGUGCUGCCUUGCAGCAUAUGAGAAGGCACCUGGCUGCU [JL-ss2-3.01 Brourd Mod] (puzzle: Same State 2)	–	–	–	–	–	apparent KD of MS2 coat protein ([3]; Eterna round: R95, input ligand: FMN 200 uM): 0.0652 µM; apparent KD of MS2 coat protein [3, 5]: 0.185 µM; apparent KD of MS2 coat protein ([3]; Eterna round: R95, input ligand: none): 0.64 µM
UUGCAGUGCGGGUAGGAUAUGUAGGGUGGUACAUGAGGAUCACCCAUGUAUCCACCCUUCGACCGGCAGAAGGGCCUGUCACCGC [Lexeis] (Eterna round: R96, puzzle: Same State 2)	–	–	0.0231	0.0112	0.0174	–
UUGCUCGUGUGAGGAUAUGCAGCCGUUUCGGCUGCAGAAGGUACUAUAAUACAUGAGGAUCACCCAUGUCUCUAUUGUUUAGUG [salish99_SSNG1_r04_927] (Eterna round: R96, puzzle: Same State NG 1)	–	–	0.0257	0.0196	0.0267	–
UUGUUUAGAAAUUAACAUGAGGAUCACCCAUGUAUUGGAUCAGAGGAUAUGCAUGUUUGAUUGUAGCAGAAGGCUGAUUGUUGA [JR_SSNG3_Sub029] (Eterna round: R96, puzzle: Same State NG 3)	–	–	–	0.0373	–	–
UUUAGAUCGCGAGGAUAUCGCGAGGAUCACCCGUGAGAAGGCGCAGAGCCGAGGAUCACCCGGCUGAUCCUGAGGAGGAGGUCU (Eterna round: R96, puzzle: Same State NG 1)	–	–	0.106	0.184	0.269	–
UUUGCAUGACGAGGAUAUCAUUUAUUUCAUGUUUGAGAAGGCGUUUUUUUUAUUACCUUACAUGAGGAUCACCCAUGUGUCUGU [JR_SSNG1_Sub044] (Eterna round: R96, puzzle: Same State NG 1)	–	–	0.0322	0.0396	0.0485	–
UUUGGGUGGCUGGAGGAUAUCCUGGUUGUUACAUGAGGAUCACCCAUGUGCCGCGCGGUGCGCUGGGAGAAGGCUGGCGGCCGUU (puzzle: Same State 2)	–	–	–	–	–	apparent KD of MS2 coat protein [3, 5]: 0.0718 µM
